# Data from patent publication US7618800B2, “Glycerol kinase, which has high resistance against preservative” (Toyo Boseki Kabushiki Kaisha, priority 2002, dated 2009).
# Tests used:
# [1] = Optimal temperature (assay method 2); assay type: biochemical; conditions: reaction in 20 mM HEPES buffer, pH 7.9 for 5 minutes
# Method: Glycerol kinase activity was assayed after reaction in […], pH 7.9 at each temperature for 5 minutes.
# After dividing 3 ml of an active reaction solution (20 mM HEPES buffer of pH 7.9 containing 4 mM ATP and 2 mM magnesium chloride) in a test tube, 0.1 ml of a glycerol kinase solution after dilution to an appropriate concentration (about 1 U/ml of the activity measured according to the assay method 1) was added thereto and mixed thoroughly. Then, the reaction mixture is preliminarily heated at each temperature for about 3 minutes. Then, 0.05 ml of aqueous 0.3 M glycerol solution was added and mixed for initiating the reaction. After the reaction for exact 10 minutes, 1 ml of 1N hydrochloric acid was added to terminate the enzyme reaction. After adding 0.15 ml of the reaction-terminated solution to 3 ml of a chromogenic solution (0.2 M HEPES buffer of pH 7.9 containing 0.01% 4-aminoantipyrin, 0.02% phenol, 5 U/ml peroxidase and 16 U/ml glycerol-3-phosphoric acid oxidase) and mixing, reaction at 37° C. for about 5 minutes was carried out to measure the absorbance at 500 nm. Then, the absorbance of 1 mM L-glycerol-3-phosphoric acid solution was simultaneously measured. The amount of L-glycerol-3-phosphoric acid produced via each of the reactions was determined. […]
# [2] = Resistance against preservative (remaining activity ratio); assay type: physicochemical
# Method: (§1) After dissolving glycerol kinase from each origin in 50 mM potassium phosphate buffer of pH 7.5 to become about 5 U/ml, each preservative was added at a concentration shown in the figure and stored at 4° C. for one week, to assay the remaining activity. […] The remaining activity ratio of the enzyme from each origin is shown in the order from the top as the activity when 0.3 mM ProClin® 300 is present, 0.8 nM ProClin® 150 is present, 500 mg/L IZU is present, 100 mg/L MIT is present and no preservative is added.
# as §1, with “25°” for “4°”, “week” for “week,”, “mM” for “nM”
# The resistance against preservative in the present invention can be evaluated on the basis of the remaining activity ratio when about 5 U/mL glycerol kinase coexists with preservative at 25° C. for one week in 50 mM potassium phosphate buffer of pH 7.5.
# The Km values of glycerol and ATP were calculated according to the Lineweaver-Burk equation according to the method described in the section “Method for assaying glycerol kinase activity” <method 1>, wherein the concentration of glycerol or ATP was changed to assay the glycerol kinase activity at each substrate concentration. • (8) Relative activity: About 41.2 U/mg • (9) Resistance against the presence of preservative: Remaining activity ratio in coexistence with 100 mg/L MIT in 50 mM potassium phosphate buffer of pH 7.5 is shown in FIGS. 5 and 6. The activity was assayed according to the method 1.
# [3] = Thermal stability of glycerol kinase; assay type: physicochemical; conditions: 50 mM potassium phosphate buffer, pH 7.5, 15-min treatment
# Method: Glycerol kinase was dissolved in 50 mM potassium phosphate buffer of pH 7.5 to become about 10 U/ml and stored at each temperature for 15 minutes. Subsequently, glycerol kinase activity was assayed to determine the remaining activity.
# After dissolving the glycerol kinase in 50 mM potassium phosphate buffer of pH 7.5 to become about 10 U/ml, glycerol kinases were stored at each temperature for 15 minutes to assay the remaining activity. […] Black circle expresses glycerol kinase of the present invention; black squares expresses glycerol kinase from Thermus fiavus.
# [4] = Km value for ATP (Lineweaver-Burk, assay method 1); assay type: biochemical; conditions: ATP concentration changed
# Method: (§2) Generally, the activity was assayed by the method. Using glycerol as substrate, the enzyme activity was assayed on the basis of the amount of produced glycerol-3-phosphoric acid. By adding 0.1 M HEPES buffer of pH 7.9 to 0.2 ml of 0.5% 4-aminoantipyrine solution, 0.2 ml of 1.5% phenol solution, 200 U of the oxidase of glycerol-3-phosphoric acid, 80 U of peroxidase, and 48.4 mg of ATP, a total volume is adjusted to be 21 ml. The resulting solution was used as the stock solution for the following assays. To 3 ml of the assay stock solution, 50 μl of 0.3 M glycerol solution and 100 μl of the enzyme solution were added and mixed. Each reaction was assayed by recording the absorbance at 500 nm for 3 minutes with a spectrophotometer which is controlled to be 37° C., and calculating the change of the absorbance per minute on the initial linear part (triangle OD test). A blank test was conducted by adding 100 μl of a diluted enzyme solution (20 mM potassium phosphate buffer of pH 7.5 containing 0.2% bovine serum albumin) instead of the enzyme solution and carrying out the same procedures as described above and calculating the change of the absorbance per minute (triangle OD blank). […]
# [5] = Glycerol kinase activity by rate assay (relative activity of purified enzyme); assay type: biochemical; conditions: protein approximated from absorbance at 280 nm
# Method: Generally, the activity was assayed by the method. Using glycerol as substrate, the enzyme activity was assayed on the basis of the amount of produced glycerol-3-phosphoric acid. By adding 0.1 M HEPES buffer of pH 7.9 to 0.2 ml of 0.5% 4-aminoantipyrine solution, 0.2 ml of 1.5% phenol solution, 200 U of the oxidase of glycerol-3-phosphoric acid, 80 U of peroxidase, and 48.4 mg of ATP, a total volume is adjusted to be 21 ml. The resulting solution was used as the stock solution for the following assays. To 3 ml of the assay stock solution, 50 μl of 0.3 M glycerol solution and 100 μl of the enzyme solution were added and mixed. Each reaction was assayed by recording the absorbance at 500 nm for 3 minutes with a spectrophotometer which is controlled to be 37° C., and calculating the change of the absorbance per minute on the initial linear part (triangle OD test). A blank test was conducted by adding 100 μl of a diluted enzyme solution (20 mM potassium phosphate buffer of pH 7.5 containing 0.2% bovine serum albumin) instead of the enzyme solution and carrying out the same procedures as described above and calculating the change of the absorbance per minute (triangle OD blank).
# Based on the change of the absorbance as obtained, the enzyme activity of glycerol kinase was calculated according to the following formula. […]
# [6] = Km value for glycerol (Lineweaver-Burk, assay method 1); assay type: biochemical; conditions: glycerol concentration changed
# Method: as §2
# [7] = Optimal pH (assay method 3); assay type: biochemical; conditions: 50 mM buffers, 37° C.
# Method: Glycerol kinase activity was assayed after reaction in each 50 mM buffer at 37° C. for 5 minutes. […] Black circles express the reaction in the presence of 50 mM MES buffer; black squares express the reaction in the presence of 50 mM HEPES buffer; black diamonds express the reaction in the presence of TAPS buffer; black triangles express the reaction in the presence of 50 mM CHES buffer; and white circles express the reaction in the presence of 50 mM glycine-NaOH.
# After dividing 3 ml of an active reaction solution (50 mM buffer at each pH, containing 4 mM ATP and 2 mM magnesium chloride) in a test tube, 0.1 ml of a glycerol kinase solution after dilution to an appropriate concentration (about 1 U/ml of the activity measured according to the assay method 1) was added thereto and mixed thoroughly. […] After adding 0.15 ml of the reaction-terminated solution to 3 ml of a chromogenic solution (0.2 M HEPES buffer of pH 7.9 containing 0.01% 4-aminoantipyrin, 0.02% phenol, 5 U/ml peroxidase and 16 U/ml glycerol-3-phosphoric acid oxidase) and mixing, reaction at 37° C. for about 5 minutes was carried out to measure the absorbance at 500 nm. Then, the absorbance of 1 mM L-glycerol-3-phosphoric acid solution was simultaneously measured. The amount of L-glycerol-3-phosphoric acid produced via each enzyme reaction was determined. […]
# [8] = pH stability of glycerol kinase; assay type: physicochemical; conditions: 20 hr treatment at 25° C.
# Method: Glycerol kinase was dissolved in each of 50 mM buffers to become about 10 U/ml and stored at 25° C. for 20 hours. Subsequently, glycerol kinase activity was assayed to determine remaining activity. […] Black circles express the reaction in the presence of acetate buffer; black squares express the reaction in the presence of potassium phosphate buffer; black diamonds express the reaction in the presence of CHES buffer; black triangles express the reaction in the presence of CAPS buffer.
molecule,measurement,setting,value
"glycerol kinase of the present invention: Recombinant glycerol kinase (SEQ ID NO:1) of Cellulomonas sp. JCM2471 gene, expressed in E. coli KM1 (pCGK12) and purified (protein, Cellulomonas sp. JCM2471, JCM2471 gene, expressed in E. coli KM1 (pCGK12) and purified) MADYVLAIDQGTTSSRAIVFNHSGEIYSTGQLEHDQIFPRAGWVEHNPEQIWNNVREVVGLALTRGNLTHEDIAAVGITNQRETAVVWDKTTGKPVYNAIVWQDTRTQKIVDELGGDEGAEKYKSIVGLPLATYFSGPKIKWILDNVEGAREKAEKGDLLFGNTDTWVLWNMTGGTEGGVHVTDVTNASRTMLMDLDTLSWREDIAADMGIPLSMLPDIRSSSEVYGHGRPRGLVPGVPIAGILGDQQAATFGQACFEVGQAKNTYGTGNFLLLNTGTEKVMSKNGLLTTVCYKIGDAPAVYALEGSIAVTGSLVQWLRDNLGMFEDAPDVEWLAGKVQDNGGAYFVPAFSGLFAPYWRPDARGALVGLTRYVNRNHIARAALEATAFQSREVVDAMNADSGVDLTELRVDGGMVANELLMQFQADQLGVDVVRPKVAETTALGAAYAAGIAVGFWKGEQDVIDNWAEDKRWSPSMESGERERLYRNWKKAVTKTMEWVDEDVEQ",Optimal temperature,[1],about 50 °C
same,Remaining activity ratio,"[2]; 100 mg/L MIT, 50 mM potassium phosphate buffer pH 7.5, storage at 4° C. for one week",~100%
same,Remaining activity ratio,"[2]; 100 mg/L MIT, 50 mM potassium phosphate buffer pH 7.5, storage at 25° C. for one week",about 92%
same,Stability in the coexistence of preservatives (in words),[2]; compared with glycerol kinase derived from Thermus flavus,high stability in the coexistence of preservatives
same,Remaining activity ratio,[2]; storage at 25° C. for one week in coexistence with preservatives (sentence names none),≥ 90%
same,Thermal stability (temperature range with remaining activity of 90% or more),[3],≤ 45 °C
same,Km,[4],~111 µM
same,Relative activity,[5],about 41.2 U/mg protein
same,Km,[6],~6.9 µM
same,Optimal pH,[7],about 10.0
same,pH stability (pH range with remaining activity of 90% or more),[8],6.0-10.0
